Experiment [1] deals with PLA2-binding GIF (antigen-binding GIF) from anti-CD3-stimulated human T-cell hybridoma AC5 (human).
Experiment [2] deals with bovine serum albumin (BSA) (bovine) (UniProt P02769). The experiment can be described thus: same ELISA, control wells.
Experiment [3] deals with recombinant human GIF secreted by COS-1 cells co-transfected with SRα-hcGIF and SRα-hfurin (human). The experiment can be described thus: absorption on 388F1-Sepharose, acid elution; 12H5 GIF bioassay.
The target is the same in experiment [4]. Put plainly: absorption on 388F1-Sepharose; titration of GIF bioactivity in the fractions.
Experiment [5] concerns the target flow-through fraction from 110BH3-Sepharose of the culture supernatant of anti-CD3-stimulated AC5 cells. The experiment can be described thus: ELISA on wells coated with the flow-through fraction from 110BH3-Sepharose; biotinylated 388F1, amplification system.

Chain of UniProt P02769 (P02769 25-607 limits assumed): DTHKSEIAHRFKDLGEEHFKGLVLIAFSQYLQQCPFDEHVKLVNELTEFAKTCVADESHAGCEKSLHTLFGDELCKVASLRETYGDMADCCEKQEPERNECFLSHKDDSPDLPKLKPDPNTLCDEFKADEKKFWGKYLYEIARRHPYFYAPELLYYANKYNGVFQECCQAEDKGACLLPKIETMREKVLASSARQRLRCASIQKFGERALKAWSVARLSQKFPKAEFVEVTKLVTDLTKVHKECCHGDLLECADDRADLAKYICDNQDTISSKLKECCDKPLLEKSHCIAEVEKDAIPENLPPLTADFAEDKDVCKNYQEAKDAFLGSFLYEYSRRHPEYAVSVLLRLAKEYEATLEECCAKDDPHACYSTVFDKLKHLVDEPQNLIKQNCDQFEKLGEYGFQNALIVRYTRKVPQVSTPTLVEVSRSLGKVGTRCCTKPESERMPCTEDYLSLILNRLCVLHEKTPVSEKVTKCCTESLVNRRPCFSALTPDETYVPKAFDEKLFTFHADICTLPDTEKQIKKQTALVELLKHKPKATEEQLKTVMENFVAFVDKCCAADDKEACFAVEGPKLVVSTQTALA

For the substance “monoclonal anti-human GIF antibody 388F1 (ATCC HB 10472)”, the values for the ELISA signal (absorption at 490 nm) (absorbance 490 nm) in experiment [1] and in experiment [5] were 0.86 and 0.36, respectively. The substance further had an ELISA control (nonspecific binding to BSA-coated wells, OD 410) in experiment [2] of 0.1 OD 410. In experiment [3], the GIF activity recovered in the acid eluate fraction is over 75%. Moreover, the GIF activity of the flow-through relative to the eluate fraction in experiment [4] is under 0.1 fold.

The values above are taken from EP0702725B1.
